Experimental data from patent publication US20030032157A1, “Polypeptides interactive with Bcl-XL” (priority 2001, published 2003).
Where no end group is shown, it is not given here.

B1: SEQ ID NO 12 (peptide)
chain: MKWDTDNTLGTEISWENKLAEGLKLTLDTIFVHHVLHAPH
notes: mRNA display clone from a known polypeptide
B2: SEQ ID NO 33 (peptide)
chain: ALSWIEMDTEMEMLLARFRRTPGDLHLDHSVHLCAHP
notes: mRNA display clone from a hypothetical or unknown polypeptide
B3: SEQ ID NO 6 (peptide)
chain: GGESDTDPHFQDALMQLAKAVASAAAALVLKAKSVAQR
notes: as for B1
B4: clone x42 (cDNA FLJ23277, Clone HEP03322) (peptide)
chain: NGNLFASFIADS
notes: as for B2
B5: proline/glutamine rich splicing factor cluster polypeptide (peptide)
chain: RGLWVDRVLEEWGLEPRQ
notes: Selected clone translated from the incorrect reading frame of the parent mRNA; not further characterized
B6: Talin (splice variant), clone X56 (peptide)
peptide: GGESDTDPHFQDALMQLAKAVASAAAALVLKAKSVAQR-{FLAG‑M2 epitope}
modifications: also: 35S-Met labelled in vitro translation product
notes: fragment limits not in text; also called selected Talin fragment
B7: Novel protein D, clone T25 (peptide)
peptide: GTRISDMLKLIADTWQRNCCPA-{FLAG‑M2 epitope}
modifications: cysteine pairing not given here; also: 35S-Met labelled in vitro translation product
B8: Bcl-2 related protein BPR, clone Y75 (peptide)
peptide: TGKEAILRRLVALLEEEAEVINQKLASDPALRSKLVRLSSDSFAHL
notes: also called Bcl-2 related proline-rich protein BPR
B9: SEQ ID NO 227 (peptide)
chain: MGDVVGFIDELEGAVSDLHRAL
notes: Second selection; clone from a hypothetical or unknown polypeptide
B10: SEQ ID NO 228 (peptide)
chain: TLRHWGLQFNTRFGV
notes: as for B9
B11: SEQ ID NO 224 (peptide)
chain: KYQQLFEDIRW
notes: Second selection; clone from a known polypeptide

molecular target: T1, human Bcl-XL-GST fusion protein (human, UniProt P08515 1-218 = GST; Q07817 1-211); assay: free peptide on immobilized Bcl-XL-GST with Bak BH3 competitor; conditions: not given
T1 construct: Made in E. coli, immobilized on glutathione Sepharose beads; whole entry named; also called Bcl-XL-glutathione S-transferase (GST) fusion protein; GST-BCL-XL
Experimental: (§1) Only three of the selected proteins (Bim, Bak, and Bax) were previously known to contain a BH3 domain. In order to determine if the other proteins bound to the BH3 domain binding site on Bcl-XL, a competition assay was performed. The Bak BH3 domain peptide used as a positive control was prepared by chemical synthesis and used to compete with individual Bcl-XL-binding polypeptides in a Bcl-XL binding assay. […] At a fixed concentration of immobilized Bcl-XL, the Bak BH3 domain-containing peptide […] (SEQ ID NO: 152), also containing a FLAG-M2 epitope, was added at the indicated concentration along with a trace amount of a selected Talin fragment. After binding for 1 hour, the unbound material was removed and the bound protein was quantitated. The bound protein was assayed by scintillation counting, normalized to that bound in the absence of competitor, and plotted versus competitor concentration.
A competition assay was performed for each of the selected Bcl-XL-binding polypeptides using 20 μM Bak BH3 competitor based on the titration shown in FIG. 6.

T1 sequence (P08515 1-218, tags or fused parts left off): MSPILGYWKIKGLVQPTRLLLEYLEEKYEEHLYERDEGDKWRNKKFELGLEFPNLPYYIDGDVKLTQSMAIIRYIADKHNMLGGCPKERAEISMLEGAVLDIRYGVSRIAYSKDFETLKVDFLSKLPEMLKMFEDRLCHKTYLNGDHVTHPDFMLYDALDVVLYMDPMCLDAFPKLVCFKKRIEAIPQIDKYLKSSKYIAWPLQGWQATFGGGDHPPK

Row | Molecule | binding result
1 | B1 | binds
2 | B2 | binds
3 | B3 | binds

molecular target: T2, BH3 domain binding site on Bcl-XL (Homo sapiens, UniProt Q07817); assay: Competition assay with Bak BH3 domain peptide in the Bcl-XL binding assay; conditions: 20 μM Bak BH3 competitor (SEQ ID NO: 152); 100 μM for some polypeptides
T2 construct: made in house; host or cells: E. coli BL21 (DE3) pLysS
Experimental: as §1
A competition assay was performed for each of the selected Bcl-XL-binding polypeptides using 20 μM Bak BH3 competitor based on the titration shown in FIG. 6. Due to poor competition with the Bcl-XL-binding polypeptides having the lowest Kd values (as determined above) a second competition was performed for some of these polypeptides using 100 μM competitor (FIG. 3A).

T2 sequence (Q07817 1-211): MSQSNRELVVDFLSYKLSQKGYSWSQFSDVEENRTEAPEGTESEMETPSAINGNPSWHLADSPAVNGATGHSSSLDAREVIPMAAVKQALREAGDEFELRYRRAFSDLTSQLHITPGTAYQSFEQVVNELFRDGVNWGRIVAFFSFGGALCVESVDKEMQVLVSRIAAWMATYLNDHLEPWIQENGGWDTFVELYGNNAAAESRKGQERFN

Row | Molecule | competition by Bak BH3 domain (BakBH3 effect), bound normalized to reaction without competitor
4 | w75: selected Bcl-XL-binding polypeptide, SEQ ID NO: 37 (RTLQPRLLQNQQQHLPALPIWFLLQWLRLHPL; listed as Homo sapiens) | not competed at all
5 | t53: selected Bcl-XL-binding polypeptide, SEQ ID NO: 25 (LDPVKDVLILSALRRMLWAADDFLEDLPFEQIG; listed as Homo sapiens) | not competed at all
6 | x42: selected polypeptide, SEQ ID NO: 35; cDNA FLJ23277, Clone HEP03322 (Table 1) (NGNLFASFIADS) | not competed at all

molecular target: T1, human Bcl-XL-GST fusion protein; assay: mRNA display selection on immobilized Bcl-XL-GST; cluster found among sequenced clones; conditions: not given

Row | Molecule | binding result
7 | B4 | binds
8 | B5 | binds

molecular target: T1, human Bcl-XL-GST fusion protein; assay: 35S-labeled free peptide on Bcl-XL-GST beads, target concentration varied, scintillation counting; relative Kd; conditions: not given
Experimental: (§2) Detection of a polypeptide binding to a Bcl-XL-glutathione S-transferase (GST) fusion protein was carried out as follows. Twenty microliters of glutathione Sepharose 4B slurry (AP Biotech) was aliquoted to a microcentrifuge tube and washed with PBS. The Bcl-XL-GST fusion protein (60 μg), prepared as describe above, was added and allowed to bind to the Sepharose beads for 1 hr at 4° C. The beads were then re-washed in selection buffer (50 mM Tris-HCL pH 7.5, 150 mM KCl, 0.05% Triton X-100, 0.5 mg/ml BSA, and 0.1 mg/ml salmon sperm DNA). The Bcl-XL-GST beads were resuspended in 100 μl of selection buffer (approximately 11.5 μM Bcl-XL) and ³⁵S-labeled mRNA display construct or free peptide was added (approximately 10-60 nM) and incubated on a rotator for 1 hr at 4° C. The reaction was then transferred to a microcentrifuge column (BioRad) and unbound mRNA display constructs or free peptides were removed by a 10 sec spin at 1,000 rpm. The Sepharose beads were then washed three times with 500 μl of selection buffer. The extent of binding between the Bcl-XL-GST fusion protein and the mRNA display constructs or free peptides was determined by scintillation counting each fraction, including the recovered beads.
Purified radioactively labeled protein from the individual clones was incubated with immobilized Bcl-XL-GST for one hour and, after washing, the amount bound was determined by scintillation counting. The binding at each concentration was normalized to that at the highest concentration and plotted versus concentration. FIG. 5 is a representational plot of the results of this binding assay. A selected Bak fragment ([…]; SEQ ID NO: 152), containing a FLAG-M2 epitope, was synthetically produced as a free protein and used in a binding assay in which the concentration of immobilized Bcl-XL-GST was varied from 11 nM to 28 μM. The amount of peptide bound to Bcl-XL was determined by scintillation counting and normalized to that bound at the highest concentration. Normalized binding was then plotted versus Bcl-XL concentration and fit to a binding curve using nonlinear regression. […] However, only binding curves that gave a high correlation coefficient ® value) were used to determine an affinity.

Row | Molecule | Kd [nM]
9 | B6 | 93
10 | MFSDIYGIREIADGLCLEVEGKMVSRPE [Tumor protein HDCMB21P, clone V50] | 690
11 | KLSECLKRIGDELDSNMELQRMIAAVDTDSPR (peptide, UniProt Q07812 58-89, looked up) [Bax, clone C49] | 760
12 | MKWDTDNTLGTEISWENKLAEGLKLTLDTIFVHHVLHAPH-{FLAG‑M2 epitope} (also: 35S-Met labelled in vitro translation product) [Voltage dependent anion channel 3, clone W06] | 1120
13 | AVQEDPVQREIHQDWANREYIEIITSSIKKIAD (also called HSCP300) [HSPC300, clone C68] | 580
14 | FWLEERDFEAGVFELEAIVNSIKRS [Toll-like receptor 3, clone U15] | 781
15 | B7 | 1610
16 | QRGMLYYQTEKYDLAIKDLKEALIQLRGNN (fragment limits not in text) [Neutrophil cytosolic factor 2, clone T95] | 4.16
17 | B8 | 420
18 | ASMRQAEPADMRPEIWIAQELRRIGDEFNAYYARE (fragment limits not in text) [Bim, clone T44] | 2
19 | GTRQDRMFETMAIEIEQLLARLTGVNDKMAEYTNA [Golgi SNAP receptor complex member 1, clone V06] | 467
20 | ATRQALNEISARHSGIQQLERSIRELHDIFTFL [Syntaxin 4A, clone U58] | 640
21 | IAQATKATIDKWNCIKLKIFYTSKKEAS-{FLAG‑M2 epitope} (also: 35S-Met labelled in vitro translation product) [Novel protein I, clone C21] | 70
22 | GQVGRQLAIIGDDINRRK [Bak, clone C32] | 402

molecular target: T3, Bcl-XL-GST fusion protein (Homo sapiens, UniProt Q07817); assay: Free purified polypeptide binding to Bcl-XL-GST fusion protein (additional selection, FIG. 9); conditions: purified free polypeptides
T3 construct: made in house; host or cells: E. coli BL21 (DE3) pLysS
Experimental: as §2, with “^35S-labeled” for “³⁵S-labeled”, “beads. […]” for “beads.”

T3 sequence (Q07817 1-211): as the sequence (Q07817 1-211) above

Row | Molecule | Binding to the Bcl-XL-GST fusion protein [%]
23 | SRP9: selected SRP9 polypeptide of the additional selection, purified free polypeptide (IGEEFSRAAEKLYLAV) | 0.65

molecular target: T1, human Bcl-XL-GST fusion protein; assay: second mRNA display selection on immobilized Bcl-XL-GST; conditions: not given

Row | Molecule | binding result
24 | B9 | binds
25 | TLREIGDLYLTSILGRR (Second selection) [SEQ ID NO 230] | binds
26 | B10 | binds
27 | SRREEAWDALFRGI (Second selection) [SEQ ID NO 229] | binds
28 | B11 | binds
